Test results from the supplement of paper PMC12042874.
± gives the uncertainty stated by the source.

Assay: amyloid nucleation score (Sup35N fusion, yeast selection) (log enrichment); library NNK3; higher = more nucleation; inactive = no reads after selection
How it was run: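 Libraries of peptides of 20 random codons fused to Sup35N were expressed in psi-negative yeast and induced 24 hours with 100 μM copper sulfate. Selection was 7 days at 30°C on medium lacking adenine and uracil, and plasmid inserts were Illumina-sequenced before and after selection. Nucleation score is the DiMSum log enrichment of output over input reads, centred on the mode score of non-aggregating sequences, and sequences with under 100 input reads were left out.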

Substance | amyloid nucleation score
MRNCEIISWKKAQVLSYNSS | inactive
IFTHVVEEFS | inactive
VIILMVIVLYNRVSFETFSV | inactive
ITDYMIQF | -0.66 ± 0.7
GWRFMLFRAQLFIWMIICFC | inactive
RYFTLISYVVVVEVSLEKPW | inactive
YISLVSWHNGWYSKLICGVV | inactive
VLKDNF | inactive
PFCFELSWGYGKNKVATMRY | inactive
VEFIEFMYDPSYYVSNQNST | inactive
YSCGFDLAAWAFTDVIRRRI | inactive
NTIVLILHYFYNSMLASSVI | inactive
MRSNSTVYGTFTRSNVLHIP | inactive
VFGPRRPMVNCSN | inactive
DFRGDLFELMMIYGRGMVLT | inactive
QMGVVNLRAKGQQCAQRQSK | inactive
CAYRLNVGSVRFGKMHPRRS | inactive
AVWTCIGWDERTKMLYKFIR | inactive
WADIIKMGDVHVVDYYRKER | inactive
VKLRPLCAVKIRRYLYVVRE | -0.054 ± 0.3
CGAQALAQWYLYLLSHAIQY | inactive
NVSRRGC | inactive
TRCSG | inactive
VELSNVFWGERYIKGLLTDL | inactive
LQMYWIIV | inactive
RLVFNLGGYFLKWCIDCFIR | inactive
WIPTPVLCGRPNFYFY | inactive

Substance | amyloid nucleation score
IDDQLCQ | inactive
YPLYVHRCLIMTFMLSLWPR | inactive
WWPLSLGNNVGPLHCRSRWE | inactive
PLLLQWHHYNLLGRS | 0.193 ± 0.69
RHREAGEATTSFNFMRMSGP | inactive
YRVVC | -0.543 ± 1.5
RWVNWLLYDKV | inactive
YLSICVMFLVASRVRSISSI | inactive
SMSSTSYIGSSLVMIARNKF | inactive
FICCMLIMKVNYDTRLISSM | inactive
SSYVQFYLGWLGRYCNGSYV | inactive
FSVMYRWRYFGDSAFWISVF | inactive
WYSNYCMIDRHGVFEVVSCM | inactive
ISDLTHFRYRDVPNLLVRTK | inactive
HEGCSMSGRIPLLSRYMGYG | inactive
SSSVRMRCSCISLASNKCAY | 1.26 ± 0.12
GCHLVSCRRTGAL | inactive
TCIGNNPMPYFTFCITHNAM | 1.03 ± 0.24
RISKA | inactive
NNLFWHNAVCLGALEEYLSK | inactive
RLSAPCCWYNTLIE | 1.96 ± 0.099
HVFSITLAVGTYLLTRLYSQ | 1.07 ± 0.1
NLQLESFYWFGPRGVRKHLE | inactive
EWFEKIFIRLTGHRTKFYNS | inactive
IKKQYINSFIDSATMKGIKV | inactive
VIVTVVSPTSMRNGDTRMQI | inactive
ILGIRYVIRINFLTRVRIHN | inactive

Substance | amyloid nucleation score
YSCSYNTSTN | -0.52 ± 0.68
GTRLRVGILIPRWDSGTFGF | inactive
CIPLLFWVWSSNVCVRLKLQ | inactive
TYMSNNTMGEFFLNLRVNLY | 2.44 ± 0.068
TQGSLTILLGLVTEMLCAYS | inactive
CPTPGWTLKRVGRVYECRG | inactive
LFITSHREGDWWLSTVRIHF | 0.367 ± 0.27
KRNRRTISLMTKFIMGKPGY | inactive
PTLLTMRQEQRHAKNFRSNL | inactive
HGVPSLLICWRVLNRSIFMV | inactive
ESYTWL | inactive
KDNPLSCLVKVNVWTKLQEG | 1.16 ± 0.12
NSIQCKRTVCILSGSTVMRE | inactive
SSGRSSPQWG | inactive
TSSLWHWMCLEITLPSRSCK | inactive
CLPQHKISNH | inactive
QWTSFLVLCCTNPRLGSSRV | 2.67 ± 0.073
GSRDYCVVNSIESDNCFQGW | inactive
FDLEMSSGFPTIELWMR | inactive
VEHSFYSLVCHRTDLF | inactive
RAPAMGL | inactive
IPERMRWVWEVTRAYNNYAW | inactive
LTMVWDNIAMYMHWHMTTPI | inactive
MGPRQKCALIATRKCQSVYL | -0.334 ± 1.1
WGCALCSYDACRLES | 2.52 ± 0.068
INLGMP | -0.279 ± 0.52
